Measured values: publication PMC2941470

Target: endogenous DDX3X from HuH-7 cells (human (endogenous in HuH-7)) (UniProt O00571)
UniProt O00571, sequence (O00571 whole entry): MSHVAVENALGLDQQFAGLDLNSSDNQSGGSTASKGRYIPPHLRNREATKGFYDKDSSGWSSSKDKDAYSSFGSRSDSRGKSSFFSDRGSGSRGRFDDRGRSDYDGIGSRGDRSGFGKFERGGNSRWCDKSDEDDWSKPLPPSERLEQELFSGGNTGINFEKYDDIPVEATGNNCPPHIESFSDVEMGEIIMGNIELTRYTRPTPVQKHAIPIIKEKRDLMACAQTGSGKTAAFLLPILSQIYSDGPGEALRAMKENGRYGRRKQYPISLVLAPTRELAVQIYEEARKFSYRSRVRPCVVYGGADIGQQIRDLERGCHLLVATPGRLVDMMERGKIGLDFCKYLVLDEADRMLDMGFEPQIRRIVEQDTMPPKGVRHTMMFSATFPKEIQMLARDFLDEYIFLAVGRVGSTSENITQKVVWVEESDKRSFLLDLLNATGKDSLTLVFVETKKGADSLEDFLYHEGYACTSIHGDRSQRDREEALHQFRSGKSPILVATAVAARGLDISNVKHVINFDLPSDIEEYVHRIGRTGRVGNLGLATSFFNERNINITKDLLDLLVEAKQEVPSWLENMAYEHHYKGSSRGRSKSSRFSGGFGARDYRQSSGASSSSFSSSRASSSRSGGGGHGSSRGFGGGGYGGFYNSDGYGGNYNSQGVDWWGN

Substance: GFP fusion to HCV core protein residues 16–36 (peptide)
- level of HCV replicon NNeo/C-5B RNA in HuH-7 cells 48 h after transient transfection (Northern blot): 50%
